This note sets out measurements from publication doi:10.1101/2022.04.11.487882.

The target in the test is receptor-binding domain (RBD) of the SARS-CoV-2 spike (S) protein S1 region, His-tagged (SARS-CoV-2) (UniProt P0DTC2). Briefly: SPR. (In SPR one partner is held on a chip, and binding of the other changes the refractive index at the surface.)

pKd: −log10 of the molar value.

As usually defined, the pKd is −log10 of the Kd, conventionally taken in molar units. A word on the koff: it is a measure of how fast the partners let go of each other. Usually kon stands for a measure of how fast the partners come together. High values mean faster complex formation, low ones slower complex formation. Turning to “recombinant human integrin αvβ6 (from UniProt P06756 31-1048; P18564 22-709) (complex)”, the pKd was 6.64, the koff amounted to 0.0236 s⁻¹ and the kon was determined as 84000 M⁻¹ s⁻¹.
As for “recombinant human integrin αvβ3 (from UniProt P06756 31-1048; P05106 27-718) (complex)”, the pKd is < 6.30.
